From article PMC3753642

Legend:
Experiment in all cases: EMSA
Conditions in all cases: TNK buffer (composition and pH not in material), 30 C
[1] = molecular target: Hfq WT (Escherichia coli) (UniProt P0A6X3)
[2] = molecular target: Hfq:R16A R16A (Escherichia coli) (UniProt P0A6X3)
[3] = molecular target: Hfq TM R16A;R17A;R19D (Escherichia coli) (UniProt P0A6X3)

Substance	Kd [1]	Kd [2]	Kd [3]
rpoS323 mRNA leader	144 nM	196 nM	
ArcZ56 sRNA	49 nM	190 nM	
RprA sRNA	187 nM	623 nM	
DsrA sRNA	132 nM	373 nM	300 nM
